{
  "source": "patent US8017326B2",
  "about": "“Methods of modulating cell death based on the Bit-1/AES regulatory pathway” (Sanford-Burnham Medical Research Institute, priority 2002, dated 2011)",
  "molecules": {"B1": {"name": "Bit1: human Bit1 polypeptide of 179 residues (SEQ ID NO:2), pro-apoptotic, expressed in cells by transfection (protein, listed as Homo sapiens)", "chain": "MPSKSLVMEYLAHPSTLGLAVGVACGMCLGWSLRVCFGMLPKSKTSKTHTDTESEASILGDSGEYKMILVVRNDLKMGKGKVAAQCSHAAVSAYKQIQRRNPEMLKQWEYCGQPKVVVKAPDEETLIALLAHAKMLGLTVSLIQDAGRTQIAPGSQTVLGIGPGPADLIDKVTGHLKLY"}},
  "key": {"[1]": {"target": "T1, AES (Homo sapiens, UniProt Q08117)", "T1 construct": "expressed in transfected cells; host or cells: yeast strain AH109", "T1 sequence (Q08117 1-197)": "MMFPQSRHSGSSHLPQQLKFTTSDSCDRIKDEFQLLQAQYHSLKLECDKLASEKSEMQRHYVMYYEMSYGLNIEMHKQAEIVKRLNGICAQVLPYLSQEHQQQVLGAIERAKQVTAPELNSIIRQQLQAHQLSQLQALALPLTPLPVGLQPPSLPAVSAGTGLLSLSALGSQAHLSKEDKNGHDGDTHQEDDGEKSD", "experiment": "Co-immunoprecipitation of exogenously expressed tagged Bit1 and AES", "assay_type": "binding", "settings": "immunoprecipitated with anti-flag, immunoblotted with anti-myc", "experimental": "Tagged Bit1 and AES were transfected into cells, and cell extracts were immunoprecipitated with anti-flag and immunoblotted with anti-myc. Equal loading of the samples was confirmed by immunoblotting of the whole extract with anti-flag.\nImmunoprecipitation and immunoblotting were performed essentially as follows. Cells were transfected with full-length clones for Bit1 and AES, which were obtained by PCR from EST clones using Pfu enzyme (Stratagene; La Jolla, Calif.) and cloned into pCMV-Myc (Clontech) or pCMV-flag (Sigma; St. Louis, Mo.). After 24 to 48 hours, cells were harvested in ice-cold NP-40 lysis buffer (1% NP-40; 20 mM Tris-HCl, pH 7.4; 150 mM NaCl; 10% glycerol, 2 mM sodium vanadate; 1 mM phenylmethyl sulfonylfluoride; 10 μg/ml leupeptin; and 5 μg/ml aprotinin) and lysed at 4° C. for 15 minutes. Lysates were incubated for two hours with the indicated antibodies, and the antibody complexes precipitated with 20 μl of Gammabind (Amersham-Pharmacia; Piscataway, N.J.) for an additional hour. After washing the beads, bound proteins were solubilized in SDS-PAGE sample buffer. Western blot analysis was performed according to standard procedures."}, "[2]": {"system": "Bcl-2 promoter", "experiment": "Bcl-2 promoter reporter assay in CHO cells", "assay_type": "cell-based, Chinese hamster", "text": "The entire CGI-147 open reading frame encodes a 27-kDa protein with no sequence similarity to other proteins. […] To denote this inhibitory transcriptional activity, the Clone-3 gene was denoted Bit1 for Bcl-2 inhibitor of transcription."}},
  "data": [
    {"molecule": "B1", "values": [
      {"measurement": "co-immunoprecipitation with AES", "setting": "[1]", "value": "confirmed interaction"},
      {"measurement": "Bcl-2 promoter activity", "setting": "[2]; CHO cells, 1 μg Bcl-2-luciferase reporter construct, 24 hours in culture", "value": "down-regulate"},
      {"measurement": "expression of the Bcl-2 promoter construct", "setting": "[2]; transfected into CHO cells", "value": "down-regulated"}
    ]}
  ]
}
